Sequences and labels used below:
T1: human CD98hc (human, UniProt P08195 109-529)
T1 construct: also called huCD98hc; CD98 heavy chain
T1 sequence: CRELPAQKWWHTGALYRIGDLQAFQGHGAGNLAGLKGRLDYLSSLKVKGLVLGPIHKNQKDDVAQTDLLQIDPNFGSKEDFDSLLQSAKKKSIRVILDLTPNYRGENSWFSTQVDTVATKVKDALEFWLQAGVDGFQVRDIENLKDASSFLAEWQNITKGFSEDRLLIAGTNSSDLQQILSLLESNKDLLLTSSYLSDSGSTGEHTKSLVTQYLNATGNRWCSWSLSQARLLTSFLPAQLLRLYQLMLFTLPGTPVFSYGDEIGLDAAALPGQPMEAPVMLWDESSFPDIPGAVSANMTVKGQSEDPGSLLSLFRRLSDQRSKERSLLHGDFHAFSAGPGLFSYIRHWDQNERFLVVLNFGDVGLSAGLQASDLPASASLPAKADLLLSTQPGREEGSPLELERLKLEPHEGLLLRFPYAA

B1: LLB2-9 (Fc fusion)
chain: APELLGGPSVFLFPPKPKDTLMISRTPEVTCVVVDVSHEDPEVKFNWYVDGVEVHNAKTKPREEQYNSTYRVVSVLTVLHQDWLNGKEYKCKVSNKALPAPIEKTISKAKGQPREPQVYTLPPSRDELTKNQVSLTCLVKGFYPSDIAVLWNSRFQLENNYKTTPPVLDSDGSFFLYSKLTVDKSRWQQGNIFACNVLHEALHNHYTFKNLSLSPGK
notes: Fc part only
B2: LLB2-10-5 (Fc fusion)
chain: B1 chain with Q156V, N191E, S212A
notes: Fc part only
B3: LLB2-21 (Fc fusion)
chain: B1 chain with A148D, Q156L, N159T, Y161T, N191E, S212K
notes: Fc part only
B4: LLB2-10-9 (Fc fusion)
chain: B1 chain with A148V, Q156V, N191E, L198Y, S212A
notes: Fc part only
B5: LLB2-17 (Fc fusion)
chain: B1 chain with A148S, Q156A, N159D, Y161T, N191E, S212A
notes: Fc part only
B6: LLB2-12 (Fc fusion)
chain: B1 chain with Q156S, N204S
notes: Fc part only
B7: LLB2-10-6 (Fc fusion)
chain: B1 chain with Q156V, L198Y, S212A
notes: Fc part only
B8: LLB2-10-8-d12 BV (Fc fusion)
chain: B1 chain with R154H, F155Y, Q156E, I192V, L198Y, S212A
notes: Fc part only; BV = bivalent
B9: LLB2-10-8 (Fc fusion)
chain: B1 chain with Q156V, N191E, L198Y, S212A
notes: Fc part only
B10: LLB2-24 (Fc fusion)
chain: B1 chain with A148E, S153T, Q156V, N159T, Y161A, N191E, Y206F, S212A
notes: Fc part only
B11: LLB2-11 (Fc fusion)
chain: B1 chain with Q156S, L198M
notes: Fc part only
B12: LLB2-10 (Fc fusion)
chain: B1 chain with Q156V
notes: Fc part only
B13: LLB2-10-11 (Fc fusion)
chain: B1 chain with Q156L, N191E, L198Y, S212A
notes: Fc part only
B14: LLB2-10-8-d16 BV (Fc fusion)
chain: B1 chain with R154Q, F155Y, Q156E, L198Y
notes: Fc part only; changes read against LLB2-10-8; BV = bivalent
B15: LLB2-10-8-d8 BV (Fc fusion)
chain: B1 chain with R154H, F155Y, Q156E, N191E, I192V, L198Y
notes: as for B14
B16: LLB2-10-8-d9 BV (Fc fusion)
chain: B1 chain with R154H, F155Y, Q156E, N191E, I192V, L198Y, S212A
notes: as for B14
B17: LLB2-10-8-d14 BV (Fc fusion)
chain: B1 chain with R154Q, F155Y, Q156E, N191E, I192V, L198Y
notes: as for B14
B18: LLB2-10-8-d17 BV (Fc fusion)
chain: B1 chain with R154Q, F155Y, Q156E, I192V, L198Y
notes: as for B14
B19: LLB2-10-10 (Fc fusion)
chain: B1 chain with R154Q, Q156V, N191E, L198Y, S212A
notes: Fc part only
B20: LLB2-10-7 (Fc fusion)
chain: B1 chain with Q156V, N204S, S212A
notes: Fc part only
B21: LLB2-10-4 (Fc fusion)
chain: B1 chain with A148V, Q156V, S212A
notes: Fc part only
B22: LLB2-10-8-d7 BV (Fc fusion)
chain: B1 chain with R154H, F155Y, Q156E, N191E, L198Y
notes: as for B14
B23: LLB2-20 (Fc fusion)
chain: B1 chain with A148V, Q156V, N159D, Y161V, N191A, Y206H, S212V
notes: Fc part only
B24: LLB2-10-8-d6 BV (Fc fusion)
chain: B1 chain with Q156V, I192V, L198Y, S212A
notes: Fc part only; BV = bivalent
B25: LLB2-10-8-d5 BV (Fc fusion)
chain: B1 chain with Q156V, I192V, L198Y
notes: as for B14
B26: LLB2-10-8-d15 BV (Fc fusion)
chain: B1 chain with R154Q, F155Y, Q156E, N191E, I192V, L198Y, S212A
notes: as for B14
B27: LLB2-30 (Fc fusion)
chain: B1 chain with R154Q, Q156L, L198Y, S212Q
notes: Fc part only
B28: LLB2-13 (Fc fusion)
chain: B1 chain with R154Q, Q156L
notes: Fc part only
B29: LLB2-18 (Fc fusion)
chain: B1 chain with A148V, Q156A, N159Q, Y161V, N191Q, Y206L, S212V
notes: Fc part only
B30: LLB2-10-8-d3 BV (Fc fusion)
chain: B1 chain with Q156V, N191E, I192V, L198Y, S212A
notes: Fc part only; BV = bivalent
B31: LLB2-10-8-d11 BV (Fc fusion)
chain: B1 chain with R154H, F155Y, Q156E, I192V, L198Y
notes: as for B14
B32: LLB2-10-12 (Fc fusion)
chain: B1 chain with Q156V, N191E, L198Y, S212Q
notes: Fc part only
B33: LLB2-10-8-d10 BV (Fc fusion)
chain: B1 chain with R154H, F155Y, Q156E, L198Y
notes: as for B14
B34: LLB2-10-8-d1 BV (Fc fusion)
chain: B1 chain with Q156V, N191E, L198Y
notes: Fc part only; BV = bivalent
B35: LLB2-10-8-d18 BV (Fc fusion)
chain: B1 chain with R154Q, F155Y, Q156E, I192V, L198Y, S212A
notes: Fc part only; BV = bivalent
B36: LLB2-10-8-d4 BV (Fc fusion)
chain: B1 chain with Q156V, L198Y
notes: as for B14
B37: LLB2-10-8-d13 BV (Fc fusion)
chain: B1 chain with R154Q, F155Y, Q156E, N191E, L198Y
notes: as for B14
B38: LLB2-10-8-d2 BV (Fc fusion)
chain: B1 chain with Q156V, N191E, I192V, L198Y
notes: as for B14
B39: LLB2-23 (Fc fusion)
chain: B1 chain with A148V, Q156V, N159Q, Y161V, N191E, S212V
notes: Fc part only
B40: LLB2-37 (Fc fusion)
chain: B1 chain with R154Q, Q156H, L198Y, S212L
notes: Fc part only
B41: LLB2-10-1 (Fc fusion)
chain: B1 chain with Q156V, S212A
notes: Fc part only
B42: LLB2-10-13 (Fc fusion)
chain: B1 chain with R154Q, Q156L, N191E, L198Y, S212Q
notes: Fc part only
B43: LLB2-31 (Fc fusion)
chain: B1 chain with R154Q, Q156V, L198Y, S212A
notes: Fc part only

The text below walks through data of patent US20250145729A1 (DENALI THERAPEUTICS, published 2025).

Residue numbers refer to the chain shown, from its start.

One experiment has as its target T1, human CD98hc. Put plainly: SPR (Biacore). A digest of the protocol: (§1)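 Engineered Fc polypeptides, made as Fc-Fab fusions with anti-BACE1 Fabs, were assessed for Kd toward CD98hc. Measurements were taken by surface plasmon resonance with a Biacore instrument, in a bivalent format or in a monovalent knob/hole format whose CD98hc-binding site sat on the knob chain alone.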
Background: SPR reads the build-up and loss of mass on a sensor chip optically.
In the case of B1, the affinity, expressed as Kd, was 750 nM.
Same read-out and setting: for B2 the value was 390 nM; for B3, 420 nM.
Same read-out and setting: the figure for B4 is 250 nM; for B5 it is 2000 nM; for B6 it is 990 nM.
The molecule B7 displayed a dissociation constant (Kd) of 460 nM.
On the same count and under the same terms, for B8 the value was 2100 nM.
With B9, binding was put at a Kd of 170 nM.
For the molecule B10, binding was characterised by a dissociation constant (Kd) of 1100 nM.
On the same count and under the same terms, the figure for B11 is 1300 nM.
The same measure, in the same setting: for B12 the value was 680 nM; for B13, 230 nM.
B14 displayed a Kd of 650 nM.
In turn, B15 returned a Kd of 820 nM.
For B16, the Kd turned out to be 840 nM.
In turn, B17 showed a Kd of 960 nM.
On to B18, for which the Kd is 960 nM.
As for B19, binding was characterised by a dissociation constant (Kd) of 220 nM.
Turning to B20, the Kd stood at 1100 nM.
The molecule B21 came in with a Kd of 630 nM.
Same read-out and setting: the figure for B22 is 410 nM.
The molecule B23 displayed a Kd of 1200 nM.
B24 gave a Kd of 1480 nM.
In the case of B25, the Kd stood at 1470 nM.
The same measure, in the same setting: for B26 the value was 1000 nM; for B27, 450 nM; for B28, 850 nM.
Still for that read-out and setting: the figure for B29 is 1800 nM; for B30 it is 490 nM; for B31 it is 2400 nM.
Same read-out and setting: for B32 the value was 210 nM.
Consider B33, for which the affinity, expressed as Kd, was 1400 nM.
The same measure, in the same setting: for B34 the value was 280 nM; for B35, 880 nM.
Still for that read-out and setting: for B36 the value was 670 nM; for B37, 650 nM.
Still for that read-out and setting: for B38 the value was 490 nM; for B39, 500 nM.
B40 had a Kd of 610 nM.
On the same count and under the same terms, the figure for B41 is 795 nM; for B42 it is 260 nM.
B43 yielded a Kd of 640 nM.

A further experiment deals with T2, cyno CD98hc (cynomolgus monkey).
T2 construct: also called cynomolgus CD98hc; cyCD98hc
Put plainly: SPR (Biacore). In a few lines:
as §1
Take B1: the Kd was 3300 nM.
On the same count and under the same terms, for B2 the value was 2200 nM; for B3, 2300 nM.
Molecule B4 yielded a Kd of 1300 nM.
The same measure, in the same setting: the figure for B5 is 9200 nM; for B6 it is 5000 nM.
B7 displayed a Kd of 2100 nM.
Still for that read-out and setting: for B8 the value was 5970 nM.
The same measure, in the same setting: for B9 the value was 890 nM; for B10, 6200 nM.
For B11, the dissociation constant (Kd) was 8200 nM.
B12 came in with a Kd of 2700 nM.
As for B13, binding was characterised by a dissociation constant (Kd) of 1200 nM.
B14 registered a Kd of 2500 nM.
The molecule B15 gave a Kd of 3500 nM.
The molecule B16 returned a Kd of 4200 nM.
Same read-out and setting: for B17 the value was 4050 nM.
Same read-out and setting: for B18 the value was 4100 nM; for B19, 1100 nM; for B20, 6200 nM.
Same read-out and setting: the figure for B21 is 3000 nM; for B22 it is 2000 nM; for B23 it is 5500 nM.
With B24, the Kd amounted to 5300 nM.
Turning to B25, the Kd is 5500 nM.
The same measure, in the same setting: for B26 the value was 4600 nM; for B27, 2000 nM; for B28, 3800 nM.
In the case of B29, the affinity, expressed as Kd, was 9100 nM.
On the same count and under the same terms, the figure for B30 is 2600 nM; for B31 it is 7200 nM; for B32 it is 1200 nM.
The molecule B33 yielded a Kd of 4200 nM.
For B34, the Kd was 1500 nM.
The molecule B35 returned a Kd of 3010 nM.
B36 came in with a Kd of 2600 nM.
Take B37: the Kd is 2600 nM.
In the case of B38, the affinity, expressed as Kd, was 2300 nM.
Take B39: the dissociation constant Kd is 2600 nM.
Molecule B40 yielded a Kd of 2800 nM.
Molecule B41 yielded a Kd of 4200 nM.
For the molecule B42, the dissociation constant (Kd) stood at 1100 nM.
B43 gave a Kd of 2100 nM.

The Kd is the free concentration of one partner at which half of the binding sites on the other are occupied at equilibrium, for simple one-to-one binding. A low value points to tighter binding.
